This data set is described as follows: protein stability index of a GFP-peptide fusion (GPS, HEK-293T) (PSI 1-6); higher = more stable. The settings on record: c terminus: a fixed tail appended.

± gives the standard deviation.
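Also: 24-mer peptide tiles fused after GFP, lentivirally expressed, FACS-sorted into six equal bins by GFP/DsRed ratio, decoded by Illumina sequencing, PSI is the read-weighted mean bin number.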

Take EQCLPSLENSKYCRFNQDPEAVDE [ATE1]: the protein stability index was determined as 5.16 ± 0.45 (treatment: DMSO) and 5.16 ± 0.26 (treatment: MLN4924 1 uM, 8 h).

On to EQLMYIKEDLIIPHHHSFYDFIVT [FAM50A], for which the protein stability index worked out at 2.42 ± 0.21 (treatment: DMSO) and 2.27 ± 0.21 (treatment: MLN4924 1 uM, 8 h).

For EQTAPGDSTGYMEVSLDSLDLRVK [EHMT1], the protein stability index amounted to 4.59 ± 0.32 (treatment: DMSO) and 4.87 ± 0.2 (treatment: MLN4924 1 uM, 8 h).

For the sequence ERCNQLLRALKLVITALKCHKYDR [ZER1], the protein stability index is, setting by setting: (treatment: DMSO) 2.56 ± 0.47; (treatment: MLN4924 1 uM, 8 h) 2.71 ± 0.47.

Consider ERDRISTRRSSYEDSSLPSINALL [HNF4A], for which the protein stability index runs as follows: (treatment: DMSO) 3.79 ± 0.097; (treatment: MLN4924 1 uM, 8 h) 3.84 ± 0.49.

Consider ERTGFSIRPVAGYLSPRDFLSGLA [TPH1], for which the protein stability index came out at 2.25 ± 0.048 (treatment: DMSO) and 2.36 ± 0.35 (treatment: MLN4924 1 uM, 8 h).

As for ESQVKSLCEKAKEILTKESNVQEV [PPP2CA], the protein stability index runs as follows: (treatment: DMSO) 5.45 ± 0.11; (treatment: MLN4924 1 uM, 8 h) 5.18 ± 0.18.

Turning to ESRALSTSSNLGSQYQCENGVSGP [TBX5], the protein stability index reads like this: (treatment: DMSO) 4.95 ± 0.25; (treatment: MLN4924 1 uM, 8 h) 5.06 ± 0.21.

The sequence ESRQTEVVIRDIDERAMELLIDFA [KLHL20] registered a protein stability index (treatment: DMSO) of 2.9 ± 0.095 and a protein stability index (treatment: MLN4924 1 uM, 8 h) of 2.96 ± 0.24.

In the case of ESSMEDCLAHLGEKVSQELKEPLH [BCL2L13], the protein stability index reads like this: (treatment: DMSO) 4.97 ± 0.2; (treatment: MLN4924 1 uM, 8 h) 5.09 ± 0.32.

In the case of ETIKDLMRQFLRGLDFLHANCIVH [CDK4], the protein stability index worked out at 3.06 ± 0.64 (treatment: DMSO) and 3.23 ± 0.56 (treatment: MLN4924 1 uM, 8 h).

As for ETLITTIDSSSSWWTNWVIPAISA [CYB5A], the protein stability index turned out to be 2.47 ± 0.63 (treatment: DMSO) and 2.48 ± 0.49 (treatment: MLN4924 1 uM, 8 h).

In the case of ETLSGHGPLAQPLTLQVLVAGNPQ [ADAMTS4], the protein stability index (treatment: DMSO) worked out at 3 ± 0.43 and the protein stability index (treatment: MLN4924 1 uM, 8 h) was found to be 2.98 ± 0.31.

For ETQEQDVDLVQKYLEKYYNLKNDG [MMP1], the protein stability index worked out at 3.99 ± 0.38 (treatment: DMSO) and 3.92 ± 0.3 (treatment: MLN4924 1 uM, 8 h).

EVFEGREDSIFGDPKKLLTQYFVQ [MAGEA6]: the protein stability index turned out to be 2.34 ± 0.18 (treatment: DMSO) and 2.46 ± 0.18 (treatment: MLN4924 1 uM, 8 h).

Regarding EVKFPNASDMFRRLRDAGFRVTLW [MYORG], the protein stability index reads like this: (treatment: DMSO) 2.97 ± 0.74; (treatment: MLN4924 1 uM, 8 h) 2.17 ± 0.31.

As for EVQHLREEKSKQFLDLMETIDKQR [LRRC45], the protein stability index came to 4.51 ± 0.32 (treatment: DMSO) and 4.49 ± 0.25 (treatment: MLN4924 1 uM, 8 h).

The sequence EVQKLVESGVDVNSQNEVNGWTCL [ANKRD40] displayed a protein stability index (treatment: DMSO) of 3.43 ± 0.53 and a protein stability index (treatment: MLN4924 1 uM, 8 h) of 3.33 ± 0.16.

The sequence EVRDRMLLKITIPNAFIGSDVVDW [DVL3] registered a protein stability index (treatment: DMSO) of 2.17 ± 0.43 and a protein stability index (treatment: MLN4924 1 uM, 8 h) of 2.46 ± 0.15.

In the case of FAVFPSLNEEQTLQEVPTGLDSIS [ETS2], the protein stability index by setting is: (treatment: DMSO) 3.81 ± 0.32; (treatment: MLN4924 1 uM, 8 h) 3.79 ± 0.39.

For FDQTVFQEVFEPPHYELCTLRGTG [NETO1], the protein stability index (treatment: DMSO) was 2.96 ± 0.12 and the protein stability index (treatment: MLN4924 1 uM, 8 h) is 2.97 ± 0.3.

FESGSVSFLNVTKSSLIWSYPAGS [TRIM43]: the protein stability index was 2.13 ± 0.41 (treatment: DMSO) and 2.11 ± 0.13 (treatment: MLN4924 1 uM, 8 h).

As for FFIGFTALVIMWQKHYVYGPLPQS [COX4I1], the protein stability index stood at 3.22 ± 0.34 (treatment: DMSO) and 3.36 ± 0.57 (treatment: MLN4924 1 uM, 8 h).

Consider FFRKLLDCCQVSAPNRFFQKLNVF [NLN], for which the protein stability index by setting is: (treatment: DMSO) 2.02 ± 0.073; (treatment: MLN4924 1 uM, 8 h) 2.47 ± 0.74.

In the case of FGEDYYGPSRSRHRRRSRERGPYR [CLK3], the protein stability index amounted to 3.27 ± 0.78 (treatment: DMSO) and 4.29 ± 0.89 (treatment: MLN4924 1 uM, 8 h).

For FGEVRPYFYLGGARGAGPPEPLRI [TRIM35], the protein stability index by setting is: (treatment: DMSO) 2.63 ± 0.91; (treatment: MLN4924 1 uM, 8 h) 2.76 ± 0.18.

In the case of FGSGSNGCLGHGSLTDISQPTIVE [NEK8], the protein stability index is, setting by setting: (treatment: DMSO) 3.5 ± 0.34; (treatment: MLN4924 1 uM, 8 h) 3.91 ± 0.2.

With FKAKEAAALGSRGSCSTEVEKETQ [ATP6V1G1], the protein stability index amounted to 2.94 ± 0.44 (treatment: DMSO) and 3.26 ± 0.27 (treatment: MLN4924 1 uM, 8 h).

Regarding FKCRNKTSGQVVAVKKFVESEDDP [CDKL4], the protein stability index reads like this: (treatment: DMSO) 4.7 ± 0.089; (treatment: MLN4924 1 uM, 8 h) 4.94 ± 0.28.

With FKLLAGRWPFDHNDFGVFLCKLFP [EDNRA], the protein stability index is, setting by setting: (treatment: DMSO) 2.34 ± 0.37; (treatment: MLN4924 1 uM, 8 h) 2.5 ± 0.38.

Consider FKRTIQGSIEYSCPASNECEITKR [ESRRA], for which the protein stability index is 3.88 ± 0.23 (treatment: DMSO) and 4.19 ± 0.23 (treatment: MLN4924 1 uM, 8 h).

For FKYINTVISCTIFIVGMVGNATLL [EDNRA], the protein stability index reads like this: (treatment: DMSO) 3.56 ± 0.57; (treatment: MLN4924 1 uM, 8 h) 2.89 ± 0.61.

For the sequence FMTTNVPNVYPAAPQGGMAALNMS [ADD1], the protein stability index is, setting by setting: (treatment: DMSO) 2.73 ± 0.41; (treatment: MLN4924 1 uM, 8 h) 2.87 ± 0.36.

In the case of FPALLSTGEFLKLPFERLAFVLSS [KLHL13], the protein stability index is, setting by setting: (treatment: DMSO) 2.95 ± 0.74; (treatment: MLN4924 1 uM, 8 h) 3.08 ± 0.73.

Regarding FPGRPMGHLSKDVDENDSHEGEDQ [DLC1], the protein stability index by setting is: (treatment: DMSO) 4.7 ± 0.38; (treatment: MLN4924 1 uM, 8 h) 5.06 ± 0.31.

Where the note is “treatment: DMSO”, FQDKRNLYLIMEFLPGGDMMTLLM [STK38L] came in with a protein stability index of 3.34 ± 0.31.

With FQEQVEKLKALHVDSAEYSCLKAI [NR2F2], the protein stability index runs as follows: (treatment: DMSO) 3.61 ± 0.2; (treatment: MLN4924 1 uM, 8 h) 3.74 ± 0.23.

The values above are taken from the supplement of paper PMC10567573.
